Data from patent publication US20060263802A1 (CRUCELL HOLLAND B V, published 2006).

Columns and labels:
Assay in all cases: PEPSCAN ELISA, looped peptide, 10 ug/ml
[1] = biological target: looped/cyclic peptide … (rabies virus strain ERA)
[2] = biological target: looped/cyclic peptide … (rabies virus strain ERA); remark: listed apart in the source
[3] = biological target: looped/cyclic peptide … (rabies virus strain ERA); remark: listed apart in the source
[4] = biological target: looped/cyclic peptide … (rabies virus strain ERA); remark: listed apart in the source
[5] = biological target: looped/cyclic peptide … (rabies virus strain ERA); remark: listed apart in the source
[6] = biological target: looped/cyclic peptide … (rabies virus strain ERA); remark: listed apart in the source
[7] = biological target: looped/cyclic peptide … (rabies virus strain ERA); remark: listed apart in the source
[8] = biological target: looped/cyclic peptide … (rabies virus strain ERA); remark: listed apart in the source
[9] = biological target: looped/cyclic peptide … (rabies virus strain ERA); remark: listed apart in the source
[10] = biological target: looped/cyclic peptide … (rabies virus strain ERA); remark: listed apart in the source
[11] = biological target: looped/cyclic peptide … (rabies virus strain ERA); remark: listed apart in the source
[12] = biological target: looped/cyclic peptide … (rabies virus strain ERA); remark: listed apart in the source
[13] = biological target: looped/cyclic peptide … (rabies virus strain ERA); remark: listed apart in the source
[14] = biological target: looped/cyclic peptide … (rabies virus strain ERA); remark: listed apart in the source
[15] = biological target: looped/cyclic peptide … (rabies virus strain ERA); remark: listed apart in the source
[16] = biological target: looped/cyclic peptide … (rabies virus strain ERA); remark: listed apart in the source
[17] = biological target: looped/cyclic peptide … (rabies virus strain ERA); remark: listed apart in the source
[18] = biological target: looped/cyclic peptide … (rabies virus strain ERA); remark: listed apart in the source
[19] = biological target: looped/cyclic peptide … (rabies virus strain ERA); remark: listed apart in the source
[20] = biological target: looped/cyclic peptide … (rabies virus strain ERA); remark: listed apart in the source
[21] = biological target: looped/cyclic peptide … (rabies virus strain ERA); remark: listed apart in the source
[22] = biological target: looped/cyclic peptide … (rabies virus strain ERA); remark: listed apart in the source
[23] = biological target: looped/cyclic peptide … (rabies virus strain ERA); remark: listed apart in the source
[24] = biological target: looped/cyclic peptide … (rabies virus strain ERA); remark: listed apart in the source
[25] = biological target: looped/cyclic peptide … (rabies virus strain ERA); remark: listed apart in the source
[26] = biological target: looped/cyclic peptide … (rabies virus strain ERA); remark: listed apart in the source
[27] = biological target: looped/cyclic peptide … (rabies virus strain ERA); remark: listed apart in the source
[28] = biological target: looped/cyclic peptide … (rabies virus strain ERA); remark: listed apart in the source
[29] = biological target: looped/cyclic peptide … (rabies virus strain ERA); remark: listed apart in the source
[30] = biological target: looped/cyclic peptide … (rabies virus strain ERA); remark: listed apart in the source
[31] = biological target: looped/cyclic peptide … (rabies virus strain ERA); remark: listed apart in the source
[32] = biological target: looped/cyclic peptide … (rabies virus strain ERA); remark: listed apart in the source
[33] = biological target: looped/cyclic peptide … (rabies virus strain ERA); remark: listed apart in the source
[34] = biological target: looped/cyclic peptide … (rabies virus strain ERA); remark: listed apart in the source
[35] = biological target: looped/cyclic peptide … (rabies virus strain ERA); remark: listed apart in the source
[36] = biological target: looped/cyclic peptide … (rabies virus strain ERA); remark: listed apart in the source
[37] = biological target: looped/cyclic peptide … (rabies virus strain ERA); remark: listed apart in the source
[38] = biological target: looped/cyclic peptide … (rabies virus strain ERA); remark: listed apart in the source
[39] = biological target: looped/cyclic peptide … (rabies virus strain ERA); remark: listed apart in the source
[40] = biological target: looped/cyclic peptide … (rabies virus strain ERA); remark: listed apart in the source
[41] = biological target: looped/cyclic peptide … (rabies virus strain ERA); remark: listed apart in the source
[42] = biological target: looped/cyclic peptide … (rabies virus strain ERA); remark: listed apart in the source
[43] = biological target: looped/cyclic peptide … (rabies virus strain ERA); remark: listed apart in the source
[44] = biological target: looped/cyclic peptide … (rabies virus strain ERA); remark: listed apart in the source
[45] = biological target: looped/cyclic peptide … (rabies virus strain ERA); remark: listed apart in the source
[46] = biological target: looped/cyclic peptide … (rabies virus strain ERA); remark: listed apart in the source
[47] = biological target: looped/cyclic peptide … (rabies virus strain ERA); remark: listed apart in the source
[48] = biological target: looped/cyclic peptide … (rabies virus strain ERA); remark: listed apart in the source
[49] = biological target: looped/cyclic peptide … (rabies virus strain ERA); remark: listed apart in the source
[50] = biological target: looped/cyclic peptide … (rabies virus strain ERA); remark: listed apart in the source
[51] = biological target: looped/cyclic peptide … (rabies virus strain ERA); remark: listed apart in the source
[52] = biological target: looped/cyclic peptide … (rabies virus strain ERA); remark: listed apart in the source
[53] = biological target: looped/cyclic peptide … (rabies virus strain ERA); remark: listed apart in the source
[54] = biological target: looped/cyclic peptide … (rabies virus strain ERA); remark: listed apart in the source
[55] = biological target: looped/cyclic peptide … (rabies virus strain ERA); remark: listed apart in the source
[56] = biological target: looped/cyclic peptide … (rabies virus strain ERA); remark: listed apart in the source
[57] = biological target: looped/cyclic peptide … (rabies virus strain ERA); remark: listed apart in the source
[58] = biological target: looped/cyclic peptide … (rabies virus strain ERA); remark: listed apart in the source
[59] = biological target: looped/cyclic peptide … (rabies virus strain ERA); remark: listed apart in the source
[60] = biological target: looped/cyclic peptide … (rabies virus strain ERA); remark: listed apart in the source
[61] = biological target: looped/cyclic peptide … (rabies virus strain ERA); remark: listed apart in the source
[62] = biological target: looped/cyclic peptide … (rabies virus strain ERA); remark: listed apart in the source
[63] = biological target: looped/cyclic peptide … (rabies virus strain ERA); remark: listed apart in the source
[64] = biological target: looped/cyclic peptide … (rabies virus strain ERA); remark: listed apart in the source
[65] = biological target: looped/cyclic peptide … (rabies virus strain ERA); remark: listed apart in the source
[66] = biological target: looped/cyclic peptide … (rabies virus strain ERA); remark: listed apart in the source
[67] = biological target: looped/cyclic peptide … (rabies virus strain ERA); remark: listed apart in the source
[68] = biological target: looped/cyclic peptide … (rabies virus strain ERA); remark: listed apart in the source
[69] = biological target: looped/cyclic peptide … (rabies virus strain ERA); remark: listed apart in the source
[70] = biological target: looped/cyclic peptide … (rabies virus strain ERA); remark: listed apart in the source
[71] = biological target: looped/cyclic peptide … (rabies virus strain ERA); remark: listed apart in the source
[72] = biological target: looped/cyclic peptide … (rabies virus strain ERA); remark: listed apart in the source
[73] = biological target: looped/cyclic peptide … (rabies virus strain ERA); remark: listed apart in the source
[74] = biological target: looped/cyclic peptide … (rabies virus strain ERA); remark: listed apart in the source
[75] = biological target: looped/cyclic peptide … (rabies virus strain ERA); remark: listed apart in the source
[76] = biological target: looped/cyclic peptide … (rabies virus strain ERA); remark: listed apart in the source
[77] = biological target: looped/cyclic peptide … (rabies virus strain ERA); remark: listed apart in the source
[78] = biological target: looped/cyclic peptide … (rabies virus strain ERA); remark: listed apart in the source
[79] = biological target: looped/cyclic peptide … (rabies virus strain ERA); remark: listed apart in the source
[80] = biological target: looped/cyclic peptide … (rabies virus strain ERA); remark: listed apart in the source
[81] = biological target: looped/cyclic peptide … (rabies virus strain ERA); remark: listed apart in the source
[82] = biological target: looped/cyclic peptide … (rabies virus strain ERA); remark: listed apart in the source
[83] = biological target: looped/cyclic peptide … (rabies virus strain ERA); remark: listed apart in the source
[84] = biological target: looped/cyclic peptide … (rabies virus strain ERA); remark: listed apart in the source
[85] = biological target: looped/cyclic peptide … (rabies virus strain ERA); remark: listed apart in the source
[86] = biological target: looped/cyclic peptide … (rabies virus strain ERA); remark: listed apart in the source
[87] = biological target: looped/cyclic peptide … (rabies virus strain ERA); remark: listed apart in the source
[88] = biological target: looped/cyclic peptide … (rabies virus strain ERA); remark: listed apart in the source
[89] = biological target: looped/cyclic peptide … (rabies virus strain ERA); remark: listed apart in the source
[90] = biological target: looped/cyclic peptide … (rabies virus strain ERA); remark: listed apart in the source
[91] = biological target: looped/cyclic peptide … (rabies virus strain ERA); remark: listed apart in the source

B1: human monoclonal antibody CRJA (antibody, V domains shown)
VH: EVQLLESGGGLVQPGGSLRLSCAASGFTFSNYAMSWVRQAPGKGLEWVSAISASGHSTYLADSVKGRFTISRDNSKNTLYLQMNSLRAEDTAVYYCAKDREVTMIVVLNGGFDYWGQGTRVTVSS
VL: EIVLTQSPATLSLSPGERATLACRASQTASRYLAWYQQKPGQAPRLLIYDTSNRATGIPARFSGSGSGTDFTLSISSLEPEDFAVYYCQQRFNWPWTFGQGTKVEFK
OD [1]: 58 OD | OD [2]: 115 OD | OD [3]: 90 OD | OD [4]: 110 OD | OD [5]: 113 OD | OD [6]: 100 OD | OD [7]: 110 OD | OD [8]: 104 OD | OD [9]: 87 OD | OD [10]: 42 OD | OD [11]: 71 OD | OD [12]: 82 OD | OD [13]: 98 OD | OD [14]: 105 OD | OD [15]: 104 OD | OD [16]: 113 OD | OD [17]: 103 OD | OD [18]: 120 OD | OD [19]: 94 OD | OD [20]: 103 OD | OD [21]: 92 OD | OD [22]: 87 OD | OD [23]: 98 OD | OD [24]: 115 OD | OD [25]: 55 OD | OD [26]: 79 OD | OD [27]: 86 OD | OD [28]: 96 OD | OD [29]: 104 OD | OD [30]: 108 OD | OD [31]: 96 OD | OD [32]: 98 OD | OD [33]: 98 OD | OD [34]: 92 OD | OD [35]: 89 OD | OD [36]: 43 OD | OD [37]: 68 OD | OD [38]: 90 OD | OD [39]: 98 OD | OD [40]: 104 OD | OD [41]: 100 OD | OD [42]: 132 OD | OD [43]: 110 OD | OD [44]: 165 OD | OD [45]: 114 OD | OD [46]: 127 OD | OD [47]: 96 OD | OD [48]: 105 OD | OD [49]: 93 OD | OD [50]: 52 OD | OD [51]: 71 OD | OD [52]: 71 OD | OD [53]: 105 OD | OD [54]: 96 OD | OD [55]: 117 OD | OD [56]: 160 OD | OD [57]: 104 OD | OD [58]: 105 OD | OD [59]: 105 OD | OD [60]: 78 OD | OD [61]: 46 OD | OD [62]: 120 OD | OD [63]: 68 OD | OD [64]: 83 OD | OD [65]: 100 OD | OD [66]: 92 OD | OD [67]: 100 OD | OD [68]: 104 OD | OD [69]: 112 OD | OD [70]: 87 OD | OD [71]: 112 OD | OD [72]: 78 OD | OD [73]: 110 OD | OD [74]: 92 OD | OD [75]: 54 OD | OD [76]: 78 OD | OD [77]: 88 OD | OD [78]: 44 OD | OD [79]: 90 OD | OD [80]: 165 OD | OD [81]: 108 OD | OD [82]: 94 OD | OD [83]: 94 OD | OD [84]: 73 OD | OD [85]: 71 OD | OD [86]: 114 OD | OD [87]: 45 OD | OD [88]: 75 OD | OD [89]: 84 OD | OD [90]: 104 OD | OD [91]: 108 OD
